According to paper PMC2363329, “Interaction of the PA2G4 (EBP1) protein with ErbB-3 and regulation of this binding by heregulin” (British Journal of Cancer, 2000):

Target: T1, ErbB-3, endogenous in AU565 cells (human (endogenous in AU565), UniProt P21860 20-1342)
T1 construct: ErbB-3, endogenous in the human AU565 mammary carcinoma cell line; source: endogenous, AU565 lysate
Assay: co-IP; AU565 cells untreated, HRG (10 ng ml-1, 15 min) or EGF (50 ng ml-1, 15 min); cytoplasmic fractions in IP buffer (50 mM Tris pH 8.0, 120 mM NaCl, 0.5% NP-40); ErbB-3 immunoprecipitation, blot with anti-p38-2G4 and anti-ErbB-3; densitometry
Conditions: partners not purified

T1 sequence (P21860 20-1342): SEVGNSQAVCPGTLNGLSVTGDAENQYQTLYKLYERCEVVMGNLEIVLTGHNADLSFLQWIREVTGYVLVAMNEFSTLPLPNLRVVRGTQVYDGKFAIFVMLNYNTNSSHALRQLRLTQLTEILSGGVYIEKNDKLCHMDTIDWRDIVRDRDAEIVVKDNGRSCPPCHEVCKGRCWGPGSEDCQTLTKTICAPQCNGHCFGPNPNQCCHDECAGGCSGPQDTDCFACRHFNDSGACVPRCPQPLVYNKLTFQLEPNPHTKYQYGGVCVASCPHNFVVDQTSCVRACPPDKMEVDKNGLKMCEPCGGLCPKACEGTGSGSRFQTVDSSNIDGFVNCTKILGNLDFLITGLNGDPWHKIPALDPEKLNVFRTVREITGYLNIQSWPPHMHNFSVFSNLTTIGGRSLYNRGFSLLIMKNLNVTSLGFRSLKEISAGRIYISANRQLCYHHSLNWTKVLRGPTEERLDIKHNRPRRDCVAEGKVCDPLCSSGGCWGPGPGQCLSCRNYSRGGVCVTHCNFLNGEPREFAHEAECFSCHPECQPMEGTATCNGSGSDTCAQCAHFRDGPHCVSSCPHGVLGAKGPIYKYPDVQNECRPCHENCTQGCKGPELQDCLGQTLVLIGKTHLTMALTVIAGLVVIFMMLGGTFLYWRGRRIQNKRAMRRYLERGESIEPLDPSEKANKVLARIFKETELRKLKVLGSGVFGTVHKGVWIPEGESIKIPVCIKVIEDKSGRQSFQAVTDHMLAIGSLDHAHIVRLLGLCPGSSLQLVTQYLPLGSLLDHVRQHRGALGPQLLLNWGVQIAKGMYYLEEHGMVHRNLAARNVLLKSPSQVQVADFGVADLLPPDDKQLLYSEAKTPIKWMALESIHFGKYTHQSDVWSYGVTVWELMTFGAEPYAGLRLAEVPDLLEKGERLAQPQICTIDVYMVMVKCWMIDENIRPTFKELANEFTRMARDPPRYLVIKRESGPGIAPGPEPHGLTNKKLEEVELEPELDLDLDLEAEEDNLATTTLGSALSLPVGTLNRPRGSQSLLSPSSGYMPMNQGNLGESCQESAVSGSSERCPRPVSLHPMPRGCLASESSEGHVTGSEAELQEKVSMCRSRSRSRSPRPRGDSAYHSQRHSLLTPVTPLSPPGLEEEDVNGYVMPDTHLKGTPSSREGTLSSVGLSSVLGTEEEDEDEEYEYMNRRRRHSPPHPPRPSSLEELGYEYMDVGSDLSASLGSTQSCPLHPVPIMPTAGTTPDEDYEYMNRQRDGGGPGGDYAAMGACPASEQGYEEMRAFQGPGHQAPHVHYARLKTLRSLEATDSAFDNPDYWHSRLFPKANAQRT

ratio of Ebp1 to ErbB-3 in ErbB-3 immunoprecipitates (densitometry), EGF-treated cells: 1.3
ratio of Ebp1 to ErbB-3 in ErbB-3 immunoprecipitates (densitometry), control cells: 1.6
ratio of Ebp1 to ErbB-3 in ErbB-3 immunoprecipitates (densitometry), heregulin-treated cells: 0.3
B1: Ebp1, endogenous approximately 50 kDa protein in AU565 cells (natural protein, human (endogenous in AU565), UniProt Q9UQ80 1-394, looked up)
chain: MSGEDEQQEQTIAEDLVVTKYKMGGDIANRVLRSLVEASSSGVSVLSLCEKGDAMIMEETGKIFKKEKEMKKGIAFPTSISVNNCVCHFSPLKSDQDYILKEGDLVKIDLGVHVDGFIANVAHTFVVDVAQGTQVTGRKADVIKAAHLCAEAALRLVKPGNQNTQVTEAWNKVAHSFNCTPIEGMLSHQLKQHVIDGEKTIIQNPTDQQKKDHEKAEFEVHEVYAVDVLVSSGEGKAKDAGQRTTIYKRDPSKQYGLKMKTSRAFFSEVERRFDAMPFTLRAFEDEKKARMGVVECAKHELLQPFNVLYEKEGEFVAQFKFTVLLMPNGPMRITSGPFEPDLYKSEMEVQDAELKALLQSSASRKTQKKKKKKASKTAENATSGETLEENEAGD
notes: Ebp1 (PA2G4), endogenous full-length protein of approximately 50 kDa in the human AU565 mammary carcinoma cell line; predicted protein of 394 amino acid residues; also called PA2G4; source: endogenous, AU565 lysate
